Legend:
MS2 coat protein [1] = assay: apparent KD of MS2 coat protein, switch ON state; designed switch direction (-1 OFF switch, 1 ON switch): -1; higher = weaker reporter binding; conditions: FMN input: 0 or 200 uM; Eterna round: R93 (includes R88 designs)
Summary of the method: (§1)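 Values are apparent KD, taken as the median for each design of fits to normalised binding curves from individual clusters. The designed RNA switches were transcribed on-chip from Illumina sequencing clusters and exposed to SNAP-549-labelled MS2 coat protein at twofold increasing amounts from 0.7 or 1.5 nM to 3 µM. Titration used 100 mM Tris-HCl pH 7.5, 80 mM KCl and 4 mM MgCl2, without or with constant ligand.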

MS2 coat protein [2] = assay: apparent KD of MS2 coat protein, switch OFF state (with FMN for OFF switches, without FMN for ON switches); designed switch direction (-1 OFF switch, 1 ON switch): -1; higher = weaker reporter binding; conditions: FMN input: 0 or 200 uM; Eterna round: R93 (includes R88 designs)
Summary of the method: as §1

| Sequence | apparent KD of MS2 coat protein (MS2 coat protein [1]) [µM] | apparent KD of MS2 coat protein (MS2 coat protein [2]) [µM] |
| --- | --- | --- |
| AACAAGACAGGAUAUACAUGAGGAUCACCCAUGUCACAAUAAAGCAGCGUAACACAAAGUAGAAGGGUCAUGGA [Ruby 9] | 0.0833 | 0.0715 |
| AACAAGUCAGGAUAUGCGAACAGAAAAUAAGCUACACAAAAGCAGAAGGGACAUGAGGAUCACCCAUGUAAAUA [JR_Exc004_Sub501] | 0.0499 | 0.0298 |
| AACACACAUGAGGAUCACCCAUGUAAGGAUAUGCAAGCAAGAAGAAAGAACAGAAAAAGCAGAAGGUACACACA [Amethyst 74] | 0.0284 | 0.0243 |
| AACAGACAUGAGGAUCACCCAUGUAAGGAUAUCCAAAACGAUAAAACAAGAAUGACAGGGAGAAGGUACAGCAA [JR_Exc001_Sub007] | 0.0536 | 0.049 |
| AACAGGACAGGAUAUACAUGAGGAUCACCCAUGUGAGAAUUUAGCAGCGUACCACACAGUAGAAGGGUCAUGGA [Ruby 23] | 0.0408 | 0.0486 |
| AACAGGUCAGGAUAUGUGGAAAAAAUAAAAAAAAUAAAAACACAGAAGGGACAUGAGGAUCACCCAUGUCAACA [May 24] | 0.03 | 0.0253 |
| AACAGUACAGGAUAUACAUGAGGAUCACCCAUGUGAAAAUUAAGUGGCGUACCACAAAGUAGAAGGGUACUGGA [Moding Maslow revisited (73) 3] | 0.0294 | 0.0864 |
| AACAGUACAGGAUAUACAUGAGGAUCACCCAUGUGAAGAUUAAGUGGUGUACCACAAAGUAGAAGGGUACUGGA [Ruby 90] | 0.0549 | 0.0779 |
| AACAGUACAGGAUAUACAUGAGGAUCACCCAUGUGAGAAACCAAUGGCGUACCAUAAAGUAGAAGGGUACUGGA [Moding Maslow Revisited (73) 31] | 0.0623 | 0.158 |
| AACAUACAUGAGGAUCACCCAUGUUAGGAUAUGCCGGGUUAGAGCCAACUAAAAAACCGUAGAAGGGACGAAAA [Bilbo Confounded 10 - Jieux - Exclusion 1] | 0.0307 | 0.0282 |
| AACAUGUCAGGAUAUUUAAGAAAAGAAAAGAAAGAAAAGAAAAAGAAGGGACAUGAGGAUCACCCAUGUAAGAA [EteRNA is fun!] | 0.117 | 0.0568 |
| AACAUGUGAGGAUAUAAAAGAAAAGAAAAGAAAGAAAAGAAUUAGAAGGCACAUGAGGAUCACCCAUGUAAGAA [EteRNA is fun!] | 0.0282 | 0.0319 |
| AACUAACAUGAGGAUCACCCAUGUCAGGAUAUGCAUCGAUCGAUCGAUCGAUCGAUCAGCAGAAGGGACAAAAA [Amethyst 92] | 0.0223 | 0.037 |
| AACUAGUGAGGAUAUACAAGAAAACAAACAAAAAUGAAGGGACAUGAGGAUCACCCAUGUAGAAGGCACUAACA [Diamond 70] | 0.0482 | 0.1 |
| AACUGACAUGAGGAUCACCCAUGUCAGGAUAUGACUUCAAAAAAAAAAAAAAAUGAUGUCAGAAGGGACAUGGA [Design 64: Sub-opt MB] | 0.0192 | 0.0207 |
| AACUGACAUGAGGAUCACCCAUGUCAGGAUAUGACUUCGAAAAAUAAAAUAAACGAUGUCAGAAGGGACAUGGA [Design 67: Sub-opt NB] | 0.0215 | 0.0411 |
| AACUGUACAGGAUAUACAUGAGGAUCACCCAUGUGAGAAUUAAGUGGCGAACCACAAAGUAGAAGGGUACAGGA [Mat - Exclusion 3 - JL mod - D16] | 0.0503 | 0.138 |

| Sequence | apparent KD of MS2 coat protein (MS2 coat protein [1]) [µM] | apparent KD of MS2 coat protein (MS2 coat protein [2]) [µM] |
| --- | --- | --- |
| AAGAAACAUGAGGAUCACCCAUGUCAGGAUAUCUAAAAGAAAAGAAAAGAAAGAAGAAAGAGAAGGGACAAAGG [Neferirkare] | 0.0392 | 0.0613 |
| AAGAAACAUGAGGAUCACCCAUGUGAGGAUAUGGAAAAGAAAAGAAAAGAAAGAAGAAUCAGAAGGCACAAAGG [Meryhathor] | 0.0464 | 0.0269 |
| AAGAAAGAAGGAUAUACAAGGAAGAAAGAAAAGAAAAGAAAACAUGAGGAUCACCCAUGUAGAAGGUCUUAGAA [EteRNA is fun!] | 0.0195 | 0.0138 |
| AAGAACAGAGGAUAUACAUGAGGAUCACCCAUGUAAAAGAAAGAAAGGGAAAAGAAAAGUAGAAGGCUGAAGAA [Neferkare Heqawaset Amenemnisu] | 0.0323 | 0.0434 |
| AAGAACAGAGGAUAUACAUGAGGAUCACCCAUGUAAAAGAAAGAAGGGAAAGAGAAAAGUAGAAGGCUGAAGAA [Titaru] | 0.025 | 0.0317 |
| AAGAACGCAGGAUAUACAUGAGGAUCACCCAUGUAAAAGAAAGAAGGGAAAGAGAAAAGUAGAAGGGCGAAGAA [Usermaatre-setepenamun Iuput I] | 0.0353 | 0.0418 |
| AAGAACGUAGGAUAUACAAAAUAAAAGAAAAGAAAGAAAGAACAUGAGGAUCACCCAUGUAGAAGGGCGAAGAA [Sekhemresewadjtawy Sobekhotep III] | 0.0495 | 0.0396 |
| AAGAACUGAGGAUAUACAUGAGGAUCACCCAUGUAAAAGAAAGAAAAGGGAAAGAAAAGUAGAAGGCAGAAGAA [Nebmaatre Amenhotep III] | 0.0369 | 0.0428 |
| AAGAAGACAGGAUAUACAUGAGGAUCACCCAUGUAAAAGAAAGAGGGAAAAGAGAAAAGUAGAAGGGUCAAGAA [Ptolemy III Euergetes I] | 0.0168 | 0.0205 |
| AAGAAGACAGGAUAUACUAAAGAAAUGAAAAGAAAGAAAGAACAUGAGGAUCACCCAUGUAGAAGGGUCAAGAA [Sewahenre Senebmiu] | 0.0662 | 0.0451 |
| AAGAAGCGAGGAUAUACAAAAUAAAAGAAAAGAAAGAAAGAACAUGAGGAUCACCCAUGUAGAAGGUGCAAGAA [Sehetepkare Intef IV] | 0.0467 | 0.0435 |
| AAGAAGGUAGGAUAUACAAAAUAAAAGAAAAGAAAGAAAGAACAUGAGGAUCACCCAUGUAGAAGGACCAAGAA [Khutawyre Wegaf] | 0.0343 | 0.0177 |
| AAGAAGGUAGGAUAUACAAAAUAAAAGAAAAGAAAGAAAGAACAUGAGGAUCACCCAUGUAGAAGGGCCAAGAA [Khendjer] | 0.0842 | 0.0353 |
| AAGAAGGUAGGAUAUACAUGAGGAUCACCCAUGUAAAAGAAAGAAAAGGGAAAGAAAAGUAGAAGGACCAAGAA [Kheperkheperure Ay] | 0.0329 | 0.0443 |
| AAGAAGUCAGGAUAUCCAAAAGAAAAGAAAAGAAAAGAAAAGGAGAAGGGACAUGAGGAUCACCCAUGUAAGAA [Khnemibre Ahmose II] | 0.0713 | 0.0209 |
| AAGAAGUCAGGAUAUGUCUGUGCGAAAAAAAAAAAGUGCAGACAGAAGGGACAUGAGGAUCACCCAUGUGGAAA [Florian 65% 7] | 0.0468 | 0.0553 |
| AAGAAGUGAGGAUAUACAUGAACGAAAAAAAAAAAGAGCAUGUAGAAGGCACAUGAGGAUCACCCAUGUCAAAA [Georg Simmel] | 0.0293 | 0.0278 |

— the supplement of paper PMC9170038
